The source of these data is the supplement of paper PMC7877785.

± gives the uncertainty stated by the source.

The data set is described as follows: self-splicing fitness, log relative to wild type (ln ratio); higher = more splicing; Tetrahymena group I intron in knt gene, E. coli kanamycin selection, DiMSum; sequences stand for … in CUCUCU…GGAGGGAAAAGUUAUCAGGCAUGCACCUGGUAGCUAGUCUUUAAACCAAUAGAUUGCAUCGGUUUAAAAGGCAAGACCGUCAAAUUGCGGGAAAGGGGUCAACAGCCGUUCAGUACCAAGUCUCAGGGGAAACUUUGAGAUGGCCUUGCAAAGGGUAUGGUAAUAAGCUGACGGACAUGGUCCUAACCACGCAGCCAAGUCCUAAGUCAACAGAUCUUCUGUUGAUAUGGAUGCAGUUCACAGACUAAAUGUCGGUCGGGGAAGAUGUAUUCUUCUCAUAAGAUAUAGUCGGACCUCUCCUUAAUGGGAGCUAGCGGAUGAAGUGAUGCAACACUGGAGCCGCUGGGAACUAAUUUGUAUGCGAAAGUAUAUUGAUUAGUUUUGGAGUACUCGUGGUCG
In outline: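 A randomised library covering all eight P1ex-region intron nucleotides was built with the intron in the knt kanamycin-resistance gene on pET-22b(+) and held in E. coli BL21(DE3). Cells were grown overnight at 37°C or 30°C on LB agar, with or without 25 μg/mL kanamycin, plus 100 μg/mL carbenicillin, 50 μM IPTG and 0.2% rhamnose, and pooled colonies were amplicon-sequenced on an Illumina HiSeq 2500. DiMSum fitness is the error-weighted combination of wild-type-normalised replicate fold changes, kanamycin versus none.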

As to CAAGAGCAAUAUUACGGAUC, the “self-splicing fitness (ln)” value is -3.07 ± 0.18 (30 °C) and -3.27 ± 0.27 (37 °C).

For the sequence CAAGAGCAAUAUUACGGGGG, the “self-splicing fitness (ln)” value by setting is: (30 °C) -3.3 ± 0.21; (37 °C) -2.62 ± 0.2.

For CAAGAGCAAUAUUACGGUCU, the “self-splicing fitness (ln)” value reads like this: (30 °C) -2.35 ± 0.16; (37 °C) -1.97 ± 0.22.

CAAGAGCAAUAUUACGUAAC: the “self-splicing fitness (ln)” value (37 °C) was -2.94 ± 0.43.

On to CAAGAGCAAUAUUACGUAUA, for which the “self-splicing fitness (ln)” value runs as follows: (30 °C) -4.95 ± 0.3; (37 °C) -1.92 ± 0.15.

CAAGAGCAAUAUUACGUCAG: the “self-splicing fitness (ln)” value runs as follows: (30 °C) -3.25 ± 0.16; (37 °C) -0.429 ± 0.11.

Consider CAAGAGCAAUAUUACGUUCA, for which the “self-splicing fitness (ln)” value is, setting by setting: (30 °C) -2.46 ± 0.17; (37 °C) -2.09 ± 0.19.

Regarding CAAGAGCAAUAUUACGUUGC, the “self-splicing fitness (ln)” value by setting is: (30 °C) -3.28 ± 0.2; (37 °C) -2.38 ± 0.23.

As for CAAGAGCAAUAUUACGUUGU, the “self-splicing fitness (ln)” value by setting is: (30 °C) -5.35 ± 0.45; (37 °C) -2.26 ± 0.22.

Take CAAGAGCAAUAUUACGUUUG: the “self-splicing fitness (ln)” value was -2.75 ± 0.21 (30 °C) and -2.37 ± 0.24 (37 °C).

CAAUAGCAAUAUUACGAAGG: the “self-splicing fitness (ln)” value is -1.86 ± 0.095 (30 °C) and -0.211 ± 0.13 (37 °C).

With CAAUAGCAAUAUUACGAAUC, the “self-splicing fitness (ln)” value is -2.66 ± 0.38 (30 °C) and -0.0469 ± 0.27 (37 °C).

For CAAUAGCAAUAUUACGACCU, the “self-splicing fitness (ln)” value is -3.2 ± 0.24 (30 °C) and -0.203 ± 0.2 (37 °C).

Turning to CAAUAGCAAUAUUACGACGC, the “self-splicing fitness (ln)” value (30 °C) is -2.73 ± 0.19 and the “self-splicing fitness (ln)” value (37 °C) is -0.616 ± 0.17.

On to CAAUAGCAAUAUUACGAGAC, for which the “self-splicing fitness (ln)” value by setting is: (30 °C) -4.17 ± 0.36; (37 °C) -2.1 ± 0.27.

With CAAUAGCAAUAUUACGCACU, the “self-splicing fitness (ln)” value (30 °C) was -2.14 ± 0.12 and the “self-splicing fitness (ln)” value (37 °C) was -1.82 ± 0.17.

Take CAAUAGCAAUAUUACGCUAA: the “self-splicing fitness (ln)” value runs as follows: (30 °C) -3.58 ± 0.43; (37 °C) -2.05 ± 0.2.

CAAUAGCAAUAUUACGGCUG: the “self-splicing fitness (ln)” value (30 °C) was -0.286 ± 0.084 and the “self-splicing fitness (ln)” value (37 °C) is -0.379 ± 0.098.

Take CAAUAGCAAUAUUACGGGAA: the “self-splicing fitness (ln)” value runs as follows: (30 °C) -3.21 ± 0.2; (37 °C) -1.94 ± 0.15.

With CAAUAGCAAUAUUACGGUAC, the “self-splicing fitness (ln)” value (30 °C) is -3.25 ± 0.19 and the “self-splicing fitness (ln)” value (37 °C) was -2.08 ± 0.18.

As for CAAUAGCAAUAUUACGGUGG, the “self-splicing fitness (ln)” value by setting is: (30 °C) -0.89 ± 0.081; (37 °C) -0.133 ± 0.1.

As for CAAUAGCAAUAUUACGUAGC, for the setting “37 °C”, the “self-splicing fitness (ln)” value was -2.05 ± 0.3.

Turning to CAAUAGCAAUAUUACGUAUA, the “self-splicing fitness (ln)” value was -3.6 ± 0.22 (30 °C) and -2.58 ± 0.19 (37 °C).

In the case of CAAUAGCAAUAUUACGUCGA, the “self-splicing fitness (ln)” value is -2.82 ± 0.21 (30 °C) and -2.96 ± 0.28 (37 °C).

Take CAAUAGCAAUAUUACGUCUU: the “self-splicing fitness (ln)” value is, setting by setting: (30 °C) -3.63 ± 0.14; (37 °C) -2.09 ± 0.13.

With CAAUAGCAAUAUUACGUUAU, the “self-splicing fitness (ln)” value (30 °C) is -4.87 ± 0.34 and the “self-splicing fitness (ln)” value (37 °C) was -1.57 ± 0.18.

On to CAAUAGCAAUAUUACGUUCU, for which the “self-splicing fitness (ln)” value (30 °C) was -4.4 ± 0.43.

For CAAUAGCAAUAUUACGUUUA, the “self-splicing fitness (ln)” value reads like this: (30 °C) -3.6 ± 0.19; (37 °C) -2.13 ± 0.14.

Consider CACAAGCAAUAUUACGACGG, for which the “self-splicing fitness (ln)” value was -0.279 ± 0.071 (30 °C) and 0.557 ± 0.083 (37 °C).

As to CACAAGCAAUAUUACGAUCU, the “self-splicing fitness (ln)” value runs as follows: (30 °C) -2.56 ± 0.09; (37 °C) -2.85 ± 0.13.

Regarding CACAAGCAAUAUUACGAUUC, the “self-splicing fitness (ln)” value was -3.55 ± 0.16 (30 °C) and -0.651 ± 0.11 (37 °C).

CACAAGCAAUAUUACGCACA: the “self-splicing fitness (ln)” value was -1.08 ± 0.087 (30 °C) and -0.518 ± 0.098 (37 °C).

On to CACAAGCAAUAUUACGCAGC, for which the “self-splicing fitness (ln)” value (30 °C) is -3.48 ± 0.29.

As to CACAAGCAAUAUUACGCAUG, the “self-splicing fitness (ln)” value was -3.79 ± 0.18 (30 °C) and -2.52 ± 0.13 (37 °C).

On to CACAAGCAAUAUUACGCCGU, for which the “self-splicing fitness (ln)” value is, setting by setting: (30 °C) -2.15 ± 0.23; (37 °C) -2.36 ± 0.26.

As to CACAAGCAAUAUUACGCCUU, the “self-splicing fitness (ln)” value (30 °C) is -3.72 ± 0.18 and the “self-splicing fitness (ln)” value (37 °C) was -1.34 ± 0.14.

As for CACAAGCAAUAUUACGCGAU, the “self-splicing fitness (ln)” value was -3.57 ± 0.15 (30 °C) and -3.18 ± 0.19 (37 °C).

As to CACAAGCAAUAUUACGCGUG, the “self-splicing fitness (ln)” value is, setting by setting: (30 °C) -2.76 ± 0.16; (37 °C) -2.24 ± 0.22.

Consider CACAAGCAAUAUUACGGCAG, for which the “self-splicing fitness (ln)” value is -0.587 ± 0.051 (30 °C) and -0.0731 ± 0.064 (37 °C).
